Assay results as given in the supplement of paper PMC9170038.

Test system: MS2 coat protein
Test: apparent KD of MS2 coat protein; designed switch direction (-1 OFF switch, 1 ON switch): -1; higher = weaker reporter binding
Method in brief: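 Designed RNA switches with common flanks were made on Illumina chips by stalled E. coli RNA polymerase. Titration with SNAP-549-labelled MS2 coat protein doubled from 0.7 or 1.5 nM up to 3 µM. Apparent KD is each design's median over clusters after curve-fitting normalised fluorescence.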

[1] = Eterna round: R95, input ligand: FMN 200 uM
[2] = Eterna round: R95, input ligand: microRNA oligo, concentration not stated
[3] = Eterna round: R95, input ligand: none
[4] = input ligand: microRNA oligo, concentration not stated

ACUUAUAGAGGAUAUACAGUUAAUUACAUGAGGAUCACCCAUGUUCUUCAAUGUAUAUAAGUAGAAGGCAAAGGAA [Mat - Exclusion 5 - Eli Mod - D3] (Eterna round: R97, puzzle: Exclusion 5)
apparent KD of MS2 coat protein (input ligand: FMN 200 uM): 23.2 nM
apparent KD of MS2 coat protein (input ligand: none): 16.2 nM

ACUUAUUGAGGAUAUACAGAAAAUUACAUGAGGAUCACCCAUGUUCUUCAAUGUAUAUAUGUAGAAGGCAGAAUAU [Mat - Exclusion 5 - JL Mod - D19] (Eterna round: R97, puzzle: Exclusion 5)
apparent KD of MS2 coat protein (input ligand: FMN 200 uM): 31.1 nM
apparent KD of MS2 coat protein (input ligand: none): 16.5 nM

AGAAAGGAAGGAUAUACAAGAAAGCUGGGCAACGUCUCAUAACAUGAGGAUCACCCAUGUAGAAGGUCCAGGAA [Tiusredi] (puzzle: Exclusion 2)
apparent KD of MS2 coat protein [1]: 35.7 nM
apparent KD of MS2 coat protein [2]: 21.2 nM
apparent KD of MS2 coat protein [3]: 19.3 nM

AGAAAUGCCCAUGGCCGCAAGCUCUUUGCUUGUCUUACCACAUGAGGAUCACCCAUGUGACAUGGGCUCCUUAUAAU [Riquarge] (puzzle: Sensor v3, turn-off variant 2)
apparent KD of MS2 coat protein [1]: 13.9 nM
apparent KD of MS2 coat protein [2]: 9.77 nM
apparent KD of MS2 coat protein [3]: 12 nM

AGAACUCUAGUAGGAUAUGUCGGAUAUGUUGUUGAGGUUCACCCAACGACGUCAAUGACAGAGGGACAGAAGGACUCCUGUUCC [pwkr exNG2 2xFMN 1xF5.9] (Eterna round: R96, puzzle: Exclusion NG 2)
apparent KD of MS2 coat protein (input ligand: FMN 200 uM): 873 nM
apparent KD of MS2 coat protein [4]: 506 nM
apparent KD of MS2 coat protein (input ligand: none): 1110 nM

AGAAGUAGUAACCGAUCCUACAUGAGGAUCACCCAUGUAGCUAGACGUGCACGCGAUGCUCGUCAGACUACCAGAUG [salish99_TOv1_r3_027] (puzzle: Sensor v3, turn-off variant 1)
apparent KD of MS2 coat protein [1]: 171 nM
apparent KD of MS2 coat protein [2]: 136 nM
apparent KD of MS2 coat protein [3]: 171 nM

AGACAGUCAGGAUAUACAUGAGGAUCACCCAUGUUGAGAUGAGAAAGGGCAGGAAGAGGUAGAAGGGACAAGAG [JR_Exclu3_Sub036] (puzzle: Exclusion 3)
apparent KD of MS2 coat protein [1]: 25 nM
apparent KD of MS2 coat protein [2]: 20.8 nM
apparent KD of MS2 coat protein [3]: 24.8 nM

AGAGAAUAGUCAGGAUAUGAGAAUAGAUAGAGCUCAGAAGGGACACAUGAGGAUCACCCAUGUGAAGUCUUGAGGCUGCGUGGA [Prohibition 20 - Jieux - Exclusion NG 1] (Eterna round: R96, puzzle: Exclusion NG 1)
apparent KD of MS2 coat protein [4]: 11.3 nM

AGAGAGUCAGGAUAUCGAAGGUAGAGAAGAGGAGAGUGGUACGAGAAGGGACAUGAGGAUCACCCAUGUAGGUG [JR_Exclusion4)Sub012] (puzzle: Exclusion 4)
apparent KD of MS2 coat protein [1]: 193 nM
apparent KD of MS2 coat protein [2]: 245 nM
apparent KD of MS2 coat protein [3]: 462 nM

AGAGUGCUGCGAGGAUAUACAUGAGGAUCACCCAUGUAAAAGUGUGAGGCAAAGCCUCACACGAAGUAGAAGGCGCAGUACUCA [Mat - Exclusion NG 2 - Mod of JL - D34] (Eterna round: R96, puzzle: Exclusion NG 2)
apparent KD of MS2 coat protein (input ligand: FMN 200 uM): 12.8 nM
apparent KD of MS2 coat protein [4]: 9.85 nM
apparent KD of MS2 coat protein (input ligand: none): 25.2 nM

AGAGUGCUGCGAGGAUAUACAUGAGGAUCACCCAUGUAAAAGUGUGAGGCUUUGCCUCACACGAAGUAGAAGGCGCAGUACUCA [Mat - Exclusion NG 2 - Mod of JL - D33] (Eterna round: R96, puzzle: Exclusion NG 2)
apparent KD of MS2 coat protein (input ligand: FMN 200 uM): 13 nM
apparent KD of MS2 coat protein [4]: 11.3 nM
apparent KD of MS2 coat protein (input ligand: none): 24.3 nM

AGAUAGUGCUGAGGAUAUCUGAAUAGAAAGAAAAGAGAAGGCGGACAUGAGGAUCACCCAUGUGAGGUCUUGAGACUACAUGGU [Prohibition 37 - Jieux - Exclusion NG 1] (Eterna round: R96, puzzle: Exclusion NG 1)
apparent KD of MS2 coat protein (input ligand: FMN 200 uM): 393 nM
apparent KD of MS2 coat protein [4]: 42.9 nM
apparent KD of MS2 coat protein (input ligand: none): 80.4 nM

AGAUCACAUGAGGAUCACCCAUGUCAGGAUAUCAUCAUUGAAGCCUCGGCUUCAAUGAUGAGAAGGGACAUAAU [E1/2-B2] (Eterna round: R97, puzzle: Exclusion 1)
apparent KD of MS2 coat protein (input ligand: FMN 200 uM): 546 nM
apparent KD of MS2 coat protein (input ligand: none): 465 nM

AGAUGCAGAGUAAGGAUAUGGUAGGCUUGCGCAAACCAGAAGGUACAUGAGGAUCACCCAUGUAAGCAUCAAGU [eternacac ex4r4 #5] (Eterna round: R97, puzzle: Brourd's mod of Exclusion 4)
apparent KD of MS2 coat protein (input ligand: FMN 200 uM): 16 nM
apparent KD of MS2 coat protein (input ligand: none): 15.1 nM

AGAUGCUUAAGUCGACAUGAGGAUCACCCAUGUACAGUUAACGAGGAUAUCCGAGAUAAAUAAUAGGAGAAGGCGUGAUCAUGA [Ex NG3 #2] (Eterna round: R96, puzzle: Exclusion NG 3)
apparent KD of MS2 coat protein (input ligand: FMN 200 uM): 56.6 nM
apparent KD of MS2 coat protein [4]: 363 nM
apparent KD of MS2 coat protein (input ligand: none): 277 nM

AGAUGGCGAGGAUAUACAUGAGGAUCACCCAUGUGAGAUAAAAGAGUGAGGAAGAAAAGUAGAAGGCGCUGUCA [Mat - Exclusion 3 - Mod of Salish D16] (puzzle: Exclusion 3)
apparent KD of MS2 coat protein [1]: 116 nM
apparent KD of MS2 coat protein [2]: 95.8 nM
apparent KD of MS2 coat protein [3]: 120 nM

AGAUGGCGAGGAUAUACAUGAGGAUCACCCAUGUGAGAUAAGAAAGUGAGGAAGAAAAGUAGAAGGCGCUGUCA [Mat - Exclusion 3 - Mod of Salish D12] (puzzle: Exclusion 3)
apparent KD of MS2 coat protein [1]: 281 nM
apparent KD of MS2 coat protein [2]: 58.6 nM
apparent KD of MS2 coat protein [3]: 58.4 nM

AGAUGUACCUAGGAUAUCCGUCGAAUUGGACUAGGAGAAGGAGGUACAUGAGGAUCACCCAUGUAUGACUCCUG [Bemabice] (puzzle: Exclusion 6)
apparent KD of MS2 coat protein [2]: 10.1 nM

AGAUGUAGAUACCGGUCCUACAUGAGGAUCACCCAUGUAGCUAGACGUGCGGGCGGCGCUCGUCGGUCUACCAGUAG [salish99_TOv1_r3_099] (puzzle: Sensor v3, turn-off variant 1)
apparent KD of MS2 coat protein [1]: 30.2 nM
apparent KD of MS2 coat protein [2]: 30.7 nM
apparent KD of MS2 coat protein [3]: 37.7 nM

AGCAGACGAGGAUAUAAACGAUAUAACAUGAGGAUCACCCAUGUACGAUCGAAUGAUCGUUUAGAAGGCGUCUGCU [E5/10-A2] (Eterna round: R97, puzzle: Exclusion 5)
apparent KD of MS2 coat protein (input ligand: FMN 200 uM): 17.3 nM
apparent KD of MS2 coat protein (input ligand: none): 15.1 nM

AGCAUGGUAGGAUAUACGGAACAUUAGGGUUUGUUGUGUGGACAUGAGGAUCACCCAUGUAGAAGGGCCGUGCA [Mat - Exclusion 2 - Mod of JL - D81] (puzzle: Exclusion 2)
apparent KD of MS2 coat protein [2]: 33.7 nM

AGCCAAGCAGGAUAUGCACGUAAUAACAUGAGGAUCACCCAUGUGACCGAUUUAUAUUCUGCAGAAGGGCUUGGAA [LRO-Excl5-14-mod of Erxesoan mod by Eli Fisker] (Eterna round: R97, puzzle: Exclusion 5)
apparent KD of MS2 coat protein (input ligand: FMN 200 uM): 143 nM
apparent KD of MS2 coat protein (input ligand: none): 29.7 nM

AGCCACAGAGGAUAUACAUACAUCCAGUAGUAGAUACUACUACAUGAGGAUCACCCAUGUAGAAGGCUGUGGCA [Omei Ex2 BD B17] (Eterna round: R97, puzzle: Exclusion 2)
apparent KD of MS2 coat protein (input ligand: FMN 200 uM): 603 nM
apparent KD of MS2 coat protein (input ligand: none): 162 nM

AGCCUGUAAUCCCUCAGACAUGAGGAUCACCCAUGUGGAUGUAAGGAUAUAGGUGCAAUUGCAAUCUAGAAGGUACGCCGUCAG [Eternabot solution 32] (Eterna round: R96, puzzle: Exclusion NG 3)
apparent KD of MS2 coat protein (input ligand: FMN 200 uM): 44.8 nM
apparent KD of MS2 coat protein [4]: 23.1 nM
apparent KD of MS2 coat protein (input ligand: none): 31.4 nM

AGCGAAUAGCUAGGAUAUGAGAAUAGAUAGAGCUCAGAAGGAGCACAUGAGGAUCACCCAUGUGAAGUCUUGAGGCUGCGUGGU [Prohibition 17 - Jieux - Exclusion NG 1] (Eterna round: R96, puzzle: Exclusion NG 1)
apparent KD of MS2 coat protein (input ligand: FMN 200 uM): 20.8 nM
apparent KD of MS2 coat protein [4]: 14.7 nM
apparent KD of MS2 coat protein (input ligand: none): 18.8 nM

AGCGCCAUCGUGAGAUGGCGUAUUACAUGAGGAUCACCCAUGUAGGAUAUCGAUUGCUUUGCAGUCGAGAAGGACAUGUUCUUG [JL ENG3 3.80 Mod B] (Eterna round: R96, puzzle: Exclusion NG 3)
apparent KD of MS2 coat protein [4]: 39.4 nM

AGCGUGGAGACAGGAUAUGAGAAUAGAUAGAAAUCAGAAGGGUCACAUGAGGAUCACCCAUGUAAAGUCUUGAGGAUGAGUGAU [Prohibition 3 - Jieux - Exclusion NG 1] (Eterna round: R96, puzzle: Exclusion NG 1)
apparent KD of MS2 coat protein [4]: 70.4 nM

AGCUAGAUAGGAUAUGCCCGAGAUAACAUGAGGAUCACCCAUGUGACCGAAUCAAAUCUAGCAGAAGGGUUUAGGA [Mod of ViennaUCT 15 - Jieux - Exclusion 5] (Eterna round: R97, puzzle: Exclusion 5)
apparent KD of MS2 coat protein (input ligand: FMN 200 uM): 16.5 nM
apparent KD of MS2 coat protein (input ligand: none): 17.2 nM

AGCUGACGAGGAUAUACAUGAGGAUCACCCAUGUUGGUCAAGCGACGAUAGUCGCAAUGUAGAAGGCGUCAGCU [E3/8-A1] (Eterna round: R97, puzzle: Exclusion 3)
apparent KD of MS2 coat protein (input ligand: FMN 200 uM): 621 nM
apparent KD of MS2 coat protein (input ligand: none): 547 nM

AGCUGUGGCCGAGGAUAUCAAGAACCAUGGAAAACCAUGGAACCUUGACAUGAGGAUCACCCAUGUGAGAAGGCGGUCUCAGCA [Eli eng2 - 026] (Eterna round: R96, puzzle: Exclusion NG 2)
apparent KD of MS2 coat protein [4]: 11.1 nM
